This is an account of results in PMC6295060.

For test [1], the target named is DMAP1 (UniProt Q9NPF5). As to the kind of experiment: co-IP. The conditions noted are these: reference: WT Bub3, mitotic arrest; sites S211.
In test [2] the target is DMAP1 (UniProt Q9NPF5). The experiment in a line: co-IP with anti-Flag antibody. Particulars: reference: WT Flag-rBub3; sites S211.
Test [3] deals with DMAP1 (UniProt Q9NPF5). As to the kind of experiment: pull-down of His-Bub3 and GST-DMAP1. The conditions noted are these: sites S211.

As to “Bub3 (from UniProt O43684) Bub3 S211A, mitotic arrest”, the “binding against the reference” value in test [1] was “weaker”.
On to “Bub3 (from UniProt O43684) Flag-rBub3 S211A”, for which, in test [2], the “binding against the reference” value is listed as “lost”.
As for “Bub3 (from UniProt O43684) WT His-Bub3 with purified p38”, the “binding against the reference” value in test [3] (reference: WT His-Bub3 without p38) was “gained”.
“Bub3 (from UniProt O43684) His-Bub3 S211A”: the “binding against the reference” value in test [3] (reference: WT His-Bub3) is “lost”.
